Assay results taken from the nanobody polyreactivity screen of Harvey et al. (2022).

Assay: yeast display, Sf9 membrane polyspecificity reagent, FACS + sequencing; frameworks hold sequencing errors
Outline: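 In a synthetic yeast display library (Saccharomyces cerevisiae BJ5465), nanobody expression was induced with galactose for 36–48 hours. FACS gates were set low and high (top ~1%) using anti-HA fluorescence for expression and streptavidin fluorescence for binding of the Sf9 membrane reagent. Each polyreactivity label is drawn from the gate of origin.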

Sequence | polyreactivity (PSR sort gate)
QVQLVESGGGLVQAGGSLRLSCAASGFTFQYYAMGWYRQAPGKERELVAAITRGDSTNYADSVKGRFTISRDNAKNTVYLQMNSLKPEDTAVYYCAKSVRYPASDYWGQGTQVTVSS | low polyreactivity
QVQLVESGGGLVQAGGSLRLSCAASGFTFQYYAMGWYRQAPGKERELVAVISRSGGRTYYADSVKGRFTISRDNGKNTVYLQMISLKPEDTAVYYCNAQSYIPTTETYDYWGQGTQVTVSS | high polyreactivity
QVQLVESGGGLVQAGGSLRLSCAASGFTFRFYAMGWYRQAPGKERELVAGISSSGGTTYYADSVKGRFTISRDNAKNTVYLQMNSLKPEDTAVYYCNRRFLPAEQYTKKYYYWGQGTQVTVSS | high polyreactivity
QVQLVESGGGLVQAGGSLRLSCAASGFTFRFYAMGWYRQAPGKERELVATISSRGGRTYYADSVKGRFTISRDNAKNTVYLQLNSLKPEDTAVYYCAADQKSQYQGNYWGQGTQVTVSS | high polyreactivity
QVQLVESGGGLVQAGGSLRLSCAASGFTFRFYVMVWYRLAPGKERELVAAITASGGTTYYADSVKGRFTISRDNAKNSVYLQMNSLKPEDTAVYYCNALYYYLYGYDYWGQGTQVTVSS | high polyreactivity
QVQLVESGGGLVQAGGSLRLSCAASGFTFRGYAMGWYRQAPGKERELVAAITWSGGSTYYADSVKGRFTISRDNAKYTVYLQMNSLKPEDTAVYYCNAYYASGYRQYDYWGQGTQVTVSS | high polyreactivity
QVQLVESGGGLVQAGGSLRLSCAASGFTFRGYDMGWYRQAPGKERELVAAISGGVSTNYADSVKGRFTISRDNAKNTVYLQMNSLKPEDTAVYYCAAVPVSAGYSSIFDYWGQGTQVTVSS | low polyreactivity
QVQLVESGGGLVQAGGSLRLSCAASGFTFRGYVMGWYRQAPGKERELVAAITNIGTSTYYADSVKGRFTISRDNAKNTVYLQMNSLKPEDTAVYYCAARLRTKFYYWGQGTLVTVSS | low polyreactivity
QVQLVESGGGLVQAGGSLRLSCAASGFTFRHYTMGWYRQAPGKERELVAAISSSGVTTYYADSVKGRFTISRDNAKNTVYLQMISLKPEDTAVYYCADRPYYYYVDYDYWGLGTQVTVSS | high polyreactivity
QVQLVESGGGLVQAGGSLRLSCAASGFTFRIYAMGWYRQAPGKERELVATISWSGTSTYYADSVKGRFTISRDNAKNTVYLQMNSLKPEDTAVYYCAKDGVSFYWLNKYYYWGQGTQVTVSS | low polyreactivity
QVQLVESGGGLVQAGGSLRLSCAASGFTFRKNAMGWYRQAPGKERELVAAIRGSAGSTYYADSVKGRFTISRDNAKNTVYLQMNSLKPEDTAVSYCATGGYPSLWDGYGYWGQGTQVTVSS | low polyreactivity
QVQLVESGGGLVQAGGSLRLSCAASGFTFRKNAMGWYRQAPGKERELVAAISSGGGRTYYADSVKGRFTISRDNAKNTVYLQMNSLKPEDTAVYYCNAVRVVRLTFQDWISMDYWGQGTQVTVSS | high polyreactivity
QVQLVESGGGLVQAGGSLRLSCAASGFTFRLYAMGWYRPAPGKERELVARISSGGSTHYADSVKGRFTISRDNAKNTVSLQMNSLKPEDTAVYYCAAGWGYWRSYGSWGQGTQVTVSS | high polyreactivity
QVQLVESGGGLVQAGGSLRLSCAASGFTFRLYVMGWYRQAPGKERELVAAISSRGGSTYYADSVKGRFTISRDNAKNTVYLQMNSLKPEDTAVYYCAADRPRGRETVDYWGQGTQVTVSS | high polyreactivity
QVQLVESGGGLVQAGGSLRLSCAASGFTFRNYAMGWYIQAPGKERELVATISWSGGSTYYADSVKGRFTISRDNAKNTVYLQMNSLKPEDTAVYYCAAKTILWKYYPYYYVTYDYWGQGTQVTVSS | high polyreactivity
QVQLVESGGGLVQAGGSLRLSCAASGFTFRQNAMGWYRQAPGNERELVAVITKSAGSTYYADSVKGRFTISRDNAKNTVYLQMNSLKPEATAVYYCNKRQRFVSSCRRSQGIGWEDDYWGQGTQVTVSS | low polyreactivity
QVQLVESGGGLVQAGGSLRLSCAASGFTFRRNAMGWYRQAPGKERELVAAINVRDGSTYYADSVKGRFTISRDNAKNTVYLQMNSLKPEDTAVYYCAAEFFQGYYWYYYWGQGTQVTVSS | high polyreactivity
